This is an account of results in patent US20200241008.

Data set [1] concerns indicator molecule containing the cleavable sequence (GPQGIFGQ) with a terminal biotin group connected via a polyethylene glycol spacer/linker, intact.
Data set [2] has as its system fluorescence resonance energy transfer (FRET) peptide of the commercial MMP-9 activity assay kit.

Sequence of active MMP-9 (Alere San Diego) (chain, as listed by the source): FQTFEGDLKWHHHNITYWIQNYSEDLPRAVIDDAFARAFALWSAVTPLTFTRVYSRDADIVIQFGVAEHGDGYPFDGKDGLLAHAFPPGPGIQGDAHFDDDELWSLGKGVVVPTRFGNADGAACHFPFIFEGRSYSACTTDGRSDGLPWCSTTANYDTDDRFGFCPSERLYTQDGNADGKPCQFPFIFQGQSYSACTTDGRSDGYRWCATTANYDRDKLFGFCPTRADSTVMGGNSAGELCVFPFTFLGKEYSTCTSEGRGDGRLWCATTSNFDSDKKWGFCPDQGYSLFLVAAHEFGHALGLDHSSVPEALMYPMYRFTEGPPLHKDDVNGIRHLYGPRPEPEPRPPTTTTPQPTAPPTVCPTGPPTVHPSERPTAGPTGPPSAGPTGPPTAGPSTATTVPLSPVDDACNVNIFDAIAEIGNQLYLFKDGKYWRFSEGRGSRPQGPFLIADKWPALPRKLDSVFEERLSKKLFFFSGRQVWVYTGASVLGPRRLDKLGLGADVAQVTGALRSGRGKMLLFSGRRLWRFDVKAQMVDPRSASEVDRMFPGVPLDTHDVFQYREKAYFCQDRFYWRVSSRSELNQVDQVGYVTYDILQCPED
Sequence of MMP2 (Enzo) (chain, as listed by the source): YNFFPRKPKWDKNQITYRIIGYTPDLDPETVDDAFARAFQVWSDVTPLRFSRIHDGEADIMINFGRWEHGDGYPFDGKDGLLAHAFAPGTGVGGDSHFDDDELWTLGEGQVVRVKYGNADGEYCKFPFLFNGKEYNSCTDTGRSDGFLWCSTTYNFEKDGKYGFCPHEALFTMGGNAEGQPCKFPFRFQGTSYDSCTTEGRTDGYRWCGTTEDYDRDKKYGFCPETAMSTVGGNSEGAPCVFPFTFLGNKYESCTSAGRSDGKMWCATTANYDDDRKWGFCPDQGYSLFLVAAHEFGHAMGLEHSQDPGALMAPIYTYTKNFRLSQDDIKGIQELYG
Sequence of MMP9 (Enzo) (chain, as listed by the source): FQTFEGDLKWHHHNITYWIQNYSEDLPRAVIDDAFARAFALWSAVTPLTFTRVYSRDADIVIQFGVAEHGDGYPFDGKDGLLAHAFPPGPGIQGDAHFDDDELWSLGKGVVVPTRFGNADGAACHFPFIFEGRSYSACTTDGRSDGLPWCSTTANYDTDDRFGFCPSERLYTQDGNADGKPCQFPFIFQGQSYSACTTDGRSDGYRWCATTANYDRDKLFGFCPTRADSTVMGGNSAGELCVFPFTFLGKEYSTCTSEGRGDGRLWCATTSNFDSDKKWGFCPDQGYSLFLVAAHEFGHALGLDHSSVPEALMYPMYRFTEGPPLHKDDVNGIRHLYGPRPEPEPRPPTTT
Sequence of MMP10 (Enzo) (chain, as listed by the source): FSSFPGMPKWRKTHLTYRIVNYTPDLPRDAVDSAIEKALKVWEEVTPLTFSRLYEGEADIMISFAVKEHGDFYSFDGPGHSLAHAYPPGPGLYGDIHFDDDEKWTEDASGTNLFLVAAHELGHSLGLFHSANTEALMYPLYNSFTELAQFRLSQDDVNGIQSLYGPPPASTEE
Sequence of MMP8 (Enzo) (chain, as listed by the source): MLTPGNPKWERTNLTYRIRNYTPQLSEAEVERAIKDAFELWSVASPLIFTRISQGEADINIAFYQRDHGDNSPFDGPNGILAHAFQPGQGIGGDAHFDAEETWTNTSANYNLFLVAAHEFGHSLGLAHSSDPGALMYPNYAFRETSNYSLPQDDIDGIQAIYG
Sequence of MMP3 (Enzo) (chain, as listed by the source): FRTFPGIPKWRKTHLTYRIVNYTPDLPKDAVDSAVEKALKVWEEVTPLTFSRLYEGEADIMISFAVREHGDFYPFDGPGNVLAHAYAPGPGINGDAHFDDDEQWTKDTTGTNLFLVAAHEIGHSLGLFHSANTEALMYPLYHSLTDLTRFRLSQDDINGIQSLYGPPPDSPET

Turning to MMP2 (Enzo), the reader value at 0.5 µg/ml MMP (lateral flow) in data set [1] came out at 1610 reader units.

On to MMP3 (Enzo), for which the reader value at 0.5 µg/ml MMP (lateral flow) in data set [1] was 336 reader units.

In the case of MMP8 (Enzo), the reader value at 0.5 µg/ml MMP (lateral flow) in data set [1] was 1140 reader units.

In data set [1], MMP9 (Enzo) gave a reader value at 0.5 µg/ml MMP (lateral flow) of 3840 reader units.

As for MMP10 (Enzo), the reader value at 0.5 µg/ml MMP (lateral flow) in data set [1] was 444 reader units.

As for active MMP-9 (Alere San Diego), in data set [2], the Reference assay read-out at 0 ng/ml MMP9 (blank) turned out to be 3820, the Reference assay read-out at 3.90625 ng/ml MMP9 was determined as 7600, the Reference assay read-out at 7.8125 ng/ml MMP9 was determined as 13100 and the Reference assay read-out at 15.625 ng/ml MMP9 was 31300. Also, in data set [2], the Reference assay read-out at 31.25 ng/ml MMP9 is 62300, the Reference assay read-out at 62.5 ng/ml MMP9 was 113000, the Reference assay read-out at 125 ng/ml MMP9 is 163000 and the Reference assay read-out at 250 ng/ml MMP9 was determined as 204000. In data set [1], this substance came in with an OD405 at 0.39 ng/ml MMP9 (ELISA, streptavidin plate, CF1522-AP) of 0.14 OD405; an OD405 at 0.78 ng/ml MMP9 (ELISA, streptavidin plate, CF1522-AP) of 0.14 OD405; an OD405 at 1.56 ng/ml MMP9 (ELISA, streptavidin plate, CF1522-AP) of 0.14 OD405; an OD405 at 3.13 ng/ml MMP9 (ELISA, streptavidin plate, CF1522-AP) of 0.13 OD405. In data set [1], the OD405 at 6.25 ng/ml MMP9 (ELISA, streptavidin plate, CF1522-AP) stood at 0.17 OD405; the OD405 at 12.50 ng/ml MMP9 (ELISA, streptavidin plate, CF1522-AP) was 0.18 OD405; the OD405 at 25.00 ng/ml MMP9 (ELISA, streptavidin plate, CF1522-AP) turned out to be 0.27 OD405; the OD405 at 50.00 ng/ml MMP9 (ELISA, streptavidin plate, CF1522-AP) was 0.5 OD405. Further, in data set [1], the Ultimate ELTABA reader value at 3.90625 ng/ml MMP9 (lateral flow) amounted to 413 reader units, the Ultimate ELTABA reader value at 7.8125 ng/ml MMP9 (lateral flow) stood at 524 reader units, the Ultimate ELTABA reader value at 15.625 ng/ml MMP9 (lateral flow) is 882 reader units and the Ultimate ELTABA reader value at 31.25 ng/ml MMP9 (lateral flow) is 2030 reader units. In data set [1], the Ultimate ELTABA reader value at 62.5 ng/ml MMP9 (lateral flow) was 3830 reader units; the Ultimate ELTABA reader value at 125 ng/ml MMP9 (lateral flow) came out at 5580 reader units; the Ultimate ELTABA reader value at 250 ng/ml MMP9 (lateral flow) worked out at 6220 reader units; the “detectable limit for MMP-9 (lateral flow, sample volume 75 µl)” value is “approximately 4 ng/ml”. Further, in data set [1], the reader value at 0.9765625 ng/ml MMP9 (lateral flow) was 338 reader units, the reader value at 0.98 ng/ml MMP9 (lateral flow) was 338 reader units, the reader value at 1.95 ng/ml MMP9 (lateral flow) amounted to 343 reader units and the reader value at 1.953125 ng/ml MMP9 (lateral flow) stood at 343 reader units. In data set [1], the reader value at 3.90625 ng/ml MMP9 (lateral flow) amounted to 413 reader units, the reader value at 3.91 ng/ml MMP9 (lateral flow) turned out to be 413 reader units, the reader value at 7.81 ng/ml MMP9 (lateral flow) was determined as 524 reader units and the reader value at 7.8125 ng/ml MMP9 (lateral flow) came to 524 reader units. Also, in data set [1], the reader value at 15.625 ng/ml MMP9 (lateral flow) is 882 reader units, the reader value at 15.63 ng/ml MMP9 (lateral flow) worked out at 882 reader units, the reader value at 31.25 ng/ml MMP9 (lateral flow) was determined as 2030 reader units and the reader value at 62.5 ng/ml MMP9 (lateral flow) was 3830 reader units. In data set [1], this substance showed a reader value at 62.50 ng/ml MMP9 (lateral flow) of 3830 reader units, a reader value at 125 ng/ml MMP9 (lateral flow) of 5580 reader units, a reader value at 250 ng/ml MMP9 (lateral flow) of 6220 reader units and a reader value at 500 ng/ml MMP9 (lateral flow) of 6730 reader units. In data set [1], the reader value at 1000 ng/ml MMP9 (lateral flow) turned out to be 6770 reader units; the “sensitivity of the MMP9 standard curves (ELISA and lateral flow)” value is “sensitivity down to 4 ng/ml”.
